Experimental data published in the Immune Epitope Database (IEDB).
Values belong to the sequence of their own block, whether it stands above or below them.

Tests used:
HLA-B*15:01 = experiment: IEDB peptide-MHC binding, purified MHC/direct/fluorescence; filed as Kd, often an IC50 or EC50 that approximates it; ≥ and ≤ were set here for values at or beyond the usual limits of such assays; details: source organism: Salmonella enterica subsp. enterica serovar Typhimurium
HLA-A*69:01 = experiment: as above
HLA-A*02:01 [1] = experiment: as above
HLA-A*24:02 [2] = experiment: IEDB peptide-MHC binding, purified MHC/competitive/radioactivity; filed as Kd, often an IC50 or EC50 that approximates it; ≥ and ≤ were set here for values at or beyond the usual limits of such assays
HLA-A*23:01 = experiment: as above
HLA-A*26:01 = experiment: as above; details: source organism: SARS coronavirus Tor2
HLA-A*29:02 = experiment: as above
HLA-A*01:01 [3] = experiment: as above
HLA-A*30:02 = experiment: as above; details: source organism: SARS coronavirus Tor2
HLA-B*57:01 = experiment: IEDB peptide-MHC binding, purified MHC/direct/fluorescence; filed as Kd, often an IC50 or EC50 that approximates it; ≥ and ≤ were set here for values at or beyond the usual limits of such assays; details: source organism: Cryptosporidium hominis
HLA-B*58:01 = experiment: as above
HLA-B*46:01 = experiment: IEDB peptide-MHC binding, purified MHC/competitive/fluorescence; filed as Kd, often an IC50 or EC50 that approximates it; ≥ and ≤ were set here for values at or beyond the usual limits of such assays
HLA-A*11:01 [4] = experiment: IEDB peptide-MHC binding, purified MHC/competitive/radioactivity; filed as Kd, often an IC50 or EC50 that approximates it; ≥ and ≤ were set here for values at or beyond the usual limits of such assays; details: source organism: Vaccinia virus WR
HLA-A*33:01 = experiment: as above
HLA-A*03:01 = experiment: as above; details: source organism: Vaccinia virus WR
HLA-A*68:01 = experiment: as above
HLA-A*31:01 = experiment: as above; details: source organism: Vaccinia virus WR
HLA-A*30:01 = experiment: as above
HLA-A*24:02 [5] = experiment: IEDB peptide-MHC binding, purified MHC/competitive/fluorescence; ≥ and ≤ were set here for values at or beyond the usual limits of such assays
HLA-A*02:01 [6] = experiment: as above
HLA-B*51:01 = experiment: IEDB peptide-MHC binding, purified MHC/competitive/fluorescence; filed as Kd, often an IC50 or EC50 that approximates it; ≥ and ≤ were set here for values at or beyond the usual limits of such assays
HLA-B*40:01 = experiment: IEDB peptide-MHC binding, purified MHC/direct/fluorescence; filed as Kd, often an IC50 or EC50 that approximates it; ≥ and ≤ were set here for values at or beyond the usual limits of such assays; details: source organism: Mammarenavirus guanaritoense
HLA-A*02:03 = experiment: IEDB peptide-MHC binding, purified MHC/competitive/radioactivity; filed as Kd, often an IC50 or EC50 that approximates it; ≥ and ≤ were set here for values at or beyond the usual limits of such assays; details: source organism: Vaccinia virus WR
HLA-A*02:06 = experiment: as above; details: source organism: Vaccinia virus WR
HLA-A*02:02 = experiment: as above; details: source organism: Vaccinia virus WR
HLA-B*07:02 = experiment: IEDB peptide-MHC binding, purified MHC/direct/fluorescence; filed as Kd, often an IC50 or EC50 that approximates it; ≥ and ≤ were set here for values at or beyond the usual limits of such assays; details: source organism: Mycobacterium avium 104
HLA-A*11:01 [7] = experiment: as above; details: source organism: SARS-CoV1
HLA-A*01:01 [8] = experiment: as above; details: source organism: Orthohantavirus hantanense
[9] = source organism: Salmonella enterica subsp. enterica serovar Typhimurium
[10] = source organism: SARS coronavirus Tor2
[11] = source organism: Vaccinia virus WR
[12] = source organism: Dengue virus 4 Dominica/814669/1981
[13] = source organism: Hyphomonas neptunium
[14] = source organism: Mammarenavirus guanaritoense
[15] = source organism: Dengue virus 2 Jamaica/1409/1983
[16] = source organism: Dengue virus 4 Philippines/H241/1956
[17] = source organism: Mammarenavirus juninense
[18] = source organism: Sudan ebolavirus
[19] = source organism: Zaire ebolavirus
[20] = source organism: Mammarenavirus whitewaterense

Sequence: GLIEEMASA
Kd (HLA-B*15:01): 4500 nM
Kd (HLA-A*69:01; [9]): ≥ 20900 nM
Kd (HLA-A*02:01 [1]; [9]): 20 nM

Sequence: YSNRNRFLY
Kd (HLA-A*24:02 [2]; [10]): 3040 nM
Kd (HLA-A*23:01; [10]): 5690 nM
Kd (HLA-A*26:01): 1470 nM
Kd (HLA-A*29:02; [10]): 0.588 nM
Kd (HLA-A*01:01 [3]; [10]): 2.9 nM
Kd (HLA-A*30:02): 0.453 nM

Sequence: LYIIKLVFLW
Kd (HLA-A*24:02 [2]; [10]): 20.9 nM
Kd (HLA-A*23:01; [10]): 0.165 nM
Kd (HLA-A*26:01): 1170 nM
Kd (HLA-A*29:02; [10]): ≥ 31800 nM
Kd (HLA-A*01:01 [3]; [10]): 13600 nM
Kd (HLA-A*30:02): ≥ 85700 nM

Sequence: MSFSDTFEM
Kd (HLA-B*57:01): 55.3 nM
Kd (HLA-B*58:01; source organism: Cryptosporidium hominis): 0.6 nM
Kd (HLA-B*46:01; source organism: Cryptosporidium parvum Iowa II): 205 nM

Sequence: ALEVLMSPCR
Kd (HLA-A*11:01 [4]): 6330 nM
Kd (HLA-A*29:02; [11]): ≥ 38500 nM
Kd (HLA-A*33:01; [11]): 254 nM
Kd (HLA-A*03:01): 328 nM
Kd (HLA-A*68:01; [11]): 465 nM
Kd (HLA-A*31:01): 42.4 nM

Sequence: STRVGMGEA
Kd (HLA-A*30:01; source organism: Dengue virus 1 Brazil/97-11/1997): 5.02 nM

Sequence: VTYKCPLLV
Kd (HLA-A*01:01 [3]; [12]): 2190 nM

Kd (HLA-A*69:01; [13]): ≥ 20000 nM
Kd (HLA-A*02:01 [1]; [13]): 9000 nM
Sequence: ALTPPFHPY

Sequence: QQICSNFKI
Kd (HLA-A*24:02 [2]; [14]): 13100 nM
Kd (HLA-A*23:01; [14]): 98.8 nM
Kd (HLA-A*29:02; [14]): 3770 nM

Sequence: ILPWTKISE
IC50 (HLA-A*24:02 [5]; [11]): 33100 nM
IC50 (HLA-A*02:01 [6]; [11]): ≥ 247000 nM

Sequence: FPPEIINVI
Kd (HLA-B*51:01; source organism: Variola virus): 213 nM

Sequence: YWVSNASGNI
Kd (HLA-A*23:01; [15]): 1330 nM

Sequence: DYQGKTVWF
Kd (HLA-A*24:02 [2]; [16]): 763 nM
Kd (HLA-A*23:01; [16]): 805 nM

Sequence: SEFCDMLRL
Kd (HLA-B*40:01): 84.2 nM

Sequence: LVIASLPLF
Kd (HLA-A*24:02 [2]; [17]): 484 nM
Kd (HLA-A*23:01; [17]): 19.1 nM
Kd (HLA-A*29:02; [17]): 1210 nM

Sequence: ETFLQSPPI
IC50 (HLA-A*24:02 [5]; [18]): 13900 nM
IC50 (HLA-A*02:01 [6]; [18]): ≥ 143000 nM

Sequence: RHERGRPLLF
Kd (HLA-A*23:01; [16]): 248 nM

Sequence: KGKRALTPPV
Kd (HLA-A*30:01; [12]): 12.4 nM

Sequence: GLAWIPYFG
IC50 (HLA-A*24:02 [5]; [19]): 62600 nM
IC50 (HLA-A*02:01 [6]; [19]): 134 nM

Sequence: MRTNFLIKF
IC50 (HLA-A*24:02 [5]; [19]): 4170 nM
IC50 (HLA-A*02:01 [6]; [19]): ≥ 673000 nM

Sequence: GNRGSTSFK
Kd (HLA-A*30:01; [11]): 2.04 nM

Sequence: LGYPFAWFL
Kd (HLA-B*58:01; [9]): 102 nM
Kd (HLA-A*69:01; [9]): 307 nM
Kd (HLA-A*02:01 [1]; [9]): 831 nM

Sequence: LLQFIVFLL
Kd (HLA-A*24:02 [2]; [20]): ≥ 77500 nM
Kd (HLA-A*23:01; [20]): 18800 nM
Kd (HLA-A*29:02; [20]): ≥ 23400 nM

Sequence: MTSTRTIIL
Kd (HLA-A*30:01; [11]): 267 nM
Kd (HLA-A*02:03): 840 nM
Kd (HLA-A*02:06): 6790 nM
Kd (HLA-A*02:02): 1340 nM

Sequence: RGRIGRNPA
Kd (HLA-A*30:01; [16]): 32.3 nM

Sequence: YTRVLKPSV
Kd (HLA-A*30:01; [11]): 738 nM

Sequence: TPKFTRMVV
Kd (HLA-B*07:02): 104 nM
Kd (HLA-B*51:01; source organism: Mycobacterium tuberculosis C): ≥ 20000 nM

Sequence: TPKGPKVKY
Kd (HLA-A*11:01 [7]): ≥ 46100 nM

Sequence: CPLVLDFII
Kd (HLA-B*51:01; source organism: Brucella abortus S19): 323 nM

Sequence: SVKCTHPLV
Kd (HLA-A*30:01; [11]): 0.968 nM

Sequence: KSSLEVYIY
Kd (HLA-A*01:01 [8]): 158 nM

Sequence: AIRAGYSIV
Kd (HLA-A*30:01; [11]): 1.42 nM
Kd (HLA-A*02:03): 0.211 nM
Kd (HLA-A*02:06): 8060 nM
Kd (HLA-A*02:02): 1200 nM

Sequence: HAFSSLLSG
Kd (HLA-A*30:01; [11]): 1110 nM

Sequence: EVKSCHWPK
Kd (HLA-A*30:01; [15]): 166 nM
Kd (HLA-A*33:01; [15]): 7.23 nM
Kd (HLA-A*68:01; [15]): 70.6 nM

Sequence: TAVDFGNSY
Kd (HLA-B*46:01; source organism: Yellow fever virus): 116 nM

Sequence: VTRKHMILV
Kd (HLA-A*30:01; [16]): 19.4 nM
